Assay results reported in PMC5551578 (The Journal of Experimental Medicine, 2017).

B1: H5-Ab2 (antibody, V domains shown)
VH: EVQLVQSGAEVKKPGSSVKVSCRSSGGPFRSNAISWVRQAPGQGLEWMGGIIAVFGTVEYAQKFQGRVTITADDSRSTVYMELRSLRSDDTAFYYCASAHGYHNYGSRGYFVSWGQGTLVTVSS
VL: DIVMTQSPGTLSLSPGERATLSCRASQSVSSNYLAWYQQKLGQPPRLLIYGASSRATGIPDRFSGSGSGTDFTLTISRLEPEDYAVYYCQQYGSSPHTFGQGTKVEIK
B2: H5-Ab4 (antibody, V domains shown)
VH: EVQLVESGGGAVQPGRSLRLSCAVSGFTFSSYGMNWVRQAPGKGLEWVAVISYDGSNTYYADSVKGRFTISRDDSKNTLFLQMNSLRADDTAVYYCAKDFQLRLLRYFDWLSSPFDHWGQGTLVTVSS
VL: DIQLTQSPGTLSLSPGERATLSCRASQSIRSNFLAWYQQTPGQGPRLLIYGASSRATGIPDRFSGSGSGTDFTLTISGLEPEDFAVYYCQQYASSPQTFGQGTKVEIK

Target: T1, H1N1 HA (A/New Caledonia/20/1999), wild type (Influenza A virus A/New …, UniProt Q6WG00, strain)
T1 construct: also called H1 wt; source: provided by D. Lingwood
Experiment: ELISA

Binder | binding result
B1 | binds
B2 | binds
